What was measured:
[1] = target: T1, CW8Q3
T1 chain: CDQMMLPW

[2] = target: T2, CF13Q4
T2 chain: CYEQHKLPSSWPF

[3] = target: T3, DH6N5
T3 chain: DVYSNH

[4] = target: T4, FE5Q4
T4 chain: FWIQE

[5] = target: T5, TGpan
T5 chain: QG

[6] = target: T6, GS12Q7
T6 chain: GGSPLAQSHGGS

[7] = target: Bovine serum albumin, P02769
[8] = target: T7, SY10Q8
T7 chain: SPLKHQEY

[9] = target: T8, HH12N11
T8 chain: HDLMWPDVYSNH

[10] = target: T9, CS9Q4
T9 chain: CYEQHKLPS

[11] = target: T10, HH12Q11
T10 chain: HDLMWPDVYSQH

[12] = target: BSA-HH12Q11 conjugate, P02769
Sequence of BSA-HH12Q11 conjugate, P02769 (P02769 25-607): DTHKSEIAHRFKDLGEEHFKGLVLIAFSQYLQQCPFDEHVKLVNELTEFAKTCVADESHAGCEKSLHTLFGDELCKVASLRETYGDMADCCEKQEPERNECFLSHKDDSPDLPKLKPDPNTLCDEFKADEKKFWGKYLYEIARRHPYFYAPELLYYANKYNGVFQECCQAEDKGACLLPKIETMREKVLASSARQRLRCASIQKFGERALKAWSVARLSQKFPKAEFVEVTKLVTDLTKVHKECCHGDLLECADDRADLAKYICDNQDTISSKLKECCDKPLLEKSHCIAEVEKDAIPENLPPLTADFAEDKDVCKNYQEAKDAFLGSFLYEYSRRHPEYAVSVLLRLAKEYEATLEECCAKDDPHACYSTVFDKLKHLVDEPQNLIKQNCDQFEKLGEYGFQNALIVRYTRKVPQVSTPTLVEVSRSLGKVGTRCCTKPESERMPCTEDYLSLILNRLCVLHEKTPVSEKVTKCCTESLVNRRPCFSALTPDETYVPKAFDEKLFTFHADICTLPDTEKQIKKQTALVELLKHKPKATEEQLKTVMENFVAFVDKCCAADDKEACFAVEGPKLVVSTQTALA

[13] = target: T11, DH6Q5
T11 chain: DVYSQH

[14] = target: T12, FY12Q10
T12 chain: FPWSSPLKHQEY

[15] = target: T13, HG14Q11
T13 chain: HDLMWPDVYSQHGG

[16] = target: T14, YV10
T14 chain: YLADTNSLAV

[17] = target: T15, WG10Q7
T15 chain: WPDVYSQHGG

Sequence of Bovine serum albumin, P02769 (P02769 25-607): as above

B1: Recombinant microbial transglutaminase (mTG) (protein)
chain: DSDDRVTPPAEPLDRMPDPYRPSYGRAETVVNNYIRKWQQVYSHRDGRKQQMTEEQREWLSYGCVGVTWVNSGQYPTNRLAFASFDEDRFKNELKNGRPRSGETRAEFEGRVAKESFDEEKGFQRAREVASVMNRALENAHDESAYLDNLKKELANGNDALRNEDARSPFYSALRNTPSFKERNGGNHDPSRMKAVIYSKHFWSGQDRSSSADKRKYGDPDAFRPAPGTGLVDMSRDRNIPRSPTSPGEGFVNFDYGWFGAQTEADADKTVWTHGNHYHAPNGSLGAMHVYESKFRNWSEGYSDFDRGAYVITFIPKSWNTAPDKVKQGWP
[1]
  mTG-mediated incorporation of biotin-X-cadaverine into plate-coupled peptide (A450): The other peptides listed in table 1 didn't show any reactivity with mTG
[2]
  mTG-mediated incorporation of biotin-X-cadaverine into plate-coupled peptide (A450): The other peptides listed in table 1 didn't show any reactivity with mTG
[3]
  mTG-mediated incorporation of biotin-X-cadaverine into plate-coupled peptide (A450): The other peptides listed in table 1 didn't show any reactivity with mTG
[4]
  mTG-mediated incorporation of biotin-X-cadaverine into plate-coupled peptide (A450): found to be good substrate for mTG with better reactivity of the peptides FE5Q4 and HH12Q11
[5]
  mTG-mediated incorporation of biotin-X-cadaverine into plate-coupled peptide (A450): showed low reactivity to mTG in comparison with the other peptides
[6]
  mTG-mediated incorporation of biotin-X-cadaverine into plate-coupled peptide (A450): showed low reactivity to mTG in comparison with the other peptides
[7]
  mTG incorporation of biot-cad into coated protein (A450): no reactivity with free BSA
[8]
  mTG-mediated incorporation of biotin-X-cadaverine into plate-coupled peptide (A450): The other peptides listed in table 1 didn't show any reactivity with mTG
[9]
  mTG-mediated incorporation of biotin-X-cadaverine into plate-coupled peptide (A450): no reactivity of the mTG was observed
[10]
  mTG-mediated incorporation of biotin-X-cadaverine into plate-coupled peptide (A450): The other peptides listed in table 1 didn't show any reactivity with mTG
[11]
  mTG-mediated incorporation of biotin-X-cadaverine into plate-coupled peptide (A450): found to be good substrate for mTG with better reactivity of the peptides FE5Q4 and HH12Q11
[12]
  mTG incorporation of biot-cad into coated conjugate (A450): a good incorporation of biot-cad was obtained with BSA-HH12Q11 conjugate
[13]
  mTG-mediated incorporation of biotin-X-cadaverine into plate-coupled peptide (A450): Peptides FE5Q4, HH12Q11 and DH6Q7 were found to be good substrate for mTG
[14]
  mTG-mediated incorporation of biotin-X-cadaverine into plate-coupled peptide (A450): The other peptides listed in table 1 didn't show any reactivity with mTG

B2: Recombinant human transglutaminase 2 (hTG2) (protein)
chain: MAEELVLERCDLELETNGRDHHTADLCREKLVVRRGQPFWLTLHFEGRNYEASVDSLTFSVVTGPAPSQEAGTKARFPLRDAVEEGDWTATVVDQQDCTLSLQLTTPANAPIGLYRLSLEASTGYQGSSFVLGHFILLFNAWCPADAVYLDSEEERQEYVLTQQGFIYQGSAKFIKNIPWNFGQFEDGILDICLILLDVNPKFLKNAGRDCSRRSSPVYVGRVVSGMVNCNDDQGVLLGRWDNNYGDGVSPMSWIGSVDILRRWKNHGCQRVKYGQCWVFAAVACTVLRCLGIPTRVVTNYNSAHDQNSNLLIEYFRNEFGEIQGDKSEMIWNFHCWVESWMTRPDLQPGYEGWQALDPTPQEKSEGTYCCGPVPVRAIKEGDLSTKYDAPFVFAEVNADVVDWIQQDDGSVHKSINRSLIVGLKISTKSVGRDEREDITHTYKYPEGSSEEREAFTRANHLNKLAEKEETGMAMRIRVGQSMNMGSDFDVFAHITNNTAEEYVCRLLLCARTVSYNGILGPECGTKYLLNLNLEPFSEKSVPLCILYEKYRDCLTESNLIKVRALLVEPVINSYLLAERDLYLENPEIKIRILGEPKQKRKLVAEVSLQNPLPVALEGCTFTVEGAGLTEEQKTVEIPDPVEAGEEVKVRMDLLPLHMGLHKLVVNFESDKLKAVKGFRNVIIGPA
[1]
  TG2-mediated incorporation of biotin-cadaverine into plate-coupled peptide (A450): none of the other peptides react with the enzyme and cannot be used as substrate for TG2
[2]
  TG2-mediated incorporation of biotin-cadaverine into plate-coupled peptide (A450): none of the other peptides react with the enzyme and cannot be used as substrate for TG2
[3]
  TG2-mediated incorporation of biotin-cadaverine into plate-coupled peptide (A450): none of the other peptides react with the enzyme and cannot be used as substrate for TG2
[15]
  TG2-mediated incorporation of biotin-cadaverine into plate-coupled peptide (A450): none of the other peptides react with the enzyme and cannot be used as substrate for TG2
[4]
  TG2-mediated incorporation of biotin-cadaverine into plate-coupled peptide (A450): none of the other peptides react with the enzyme and cannot be used as substrate for TG2
[5]
  TG2-mediated incorporation of biotin-cadaverine into plate-coupled peptide (A450): TGpan is good substrate for TG2 confirming its specificity to this enzyme
[16]
  TG2-mediated incorporation of biotin-cadaverine into plate-coupled peptide (A450): none of the other peptides react with the enzyme and cannot be used as substrate for TG2
[6]
  TG2-mediated incorporation of biotin-cadaverine into plate-coupled peptide (A450): none of the other peptides react with the enzyme and cannot be used as substrate for TG2
[8]
  TG2-mediated incorporation of biotin-cadaverine into plate-coupled peptide (A450): none of the other peptides react with the enzyme and cannot be used as substrate for TG2
[17]
  TG2-mediated incorporation of biotin-cadaverine into plate-coupled peptide (A450): none of the other peptides react with the enzyme and cannot be used as substrate for TG2
[9]
  TG2-mediated incorporation of biotin-cadaverine into plate-coupled peptide (A450): none of the other peptides react with the enzyme and cannot be used as substrate for TG2
[10]
  TG2-mediated incorporation of biotin-cadaverine into plate-coupled peptide (A450): none of the other peptides react with the enzyme and cannot be used as substrate for TG2
[11]
  TG2-mediated incorporation of biotin-cadaverine into plate-coupled peptide (A450): HH12Q11 show less reactivity with TG2 than mTG
[13]
  TG2-mediated incorporation of biotin-cadaverine into plate-coupled peptide (A450): none of the other peptides react with the enzyme and cannot be used as substrate for TG2
[14]
  TG2-mediated incorporation of biotin-cadaverine into plate-coupled peptide (A450): none of the other peptides react with the enzyme and cannot be used as substrate for TG2

Reference: patent US20160361434
